From patent US20100291145A1

Molecular target: human melanoma gp100(46-58) peptide, Ac-…-NH2 (human)
Test: ELISA, gp100(46-58) peptide on plate; naive DR4-IE Tg serum; anti-IgG2a detection

ELISA IgG2a signal at serum dilution 1:20: 0.063
ELISA IgG2a signal at serum dilution 1:60: 0.058
ELISA IgG2a signal at serum dilution 1:180: 0.056
ELISA IgG2a signal at serum dilution 1:540: 0.055
Substance: serum of naive DR4-IE Tg mice (control of Tables 23.9 and 23.10) (antibody)
